# Results taken from patent US20090074771A1 (MacroGenics, published 2009).
# T1: soluble extracellular domain of human CD32A-R131 (human, UniProt P12318 34-217)
# T1 construct: extracellular domain; Monomeric analyte in BIAcore, 100 nM
# T1 sequence (looked up): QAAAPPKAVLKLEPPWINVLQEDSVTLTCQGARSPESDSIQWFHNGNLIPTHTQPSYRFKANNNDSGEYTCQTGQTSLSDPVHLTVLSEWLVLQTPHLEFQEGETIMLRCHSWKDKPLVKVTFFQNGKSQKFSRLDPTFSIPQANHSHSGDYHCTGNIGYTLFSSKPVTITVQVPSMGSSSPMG
# T2: soluble extracellular domain of human FcγRIIB (CD32B), produced in mammalian (293/293H) cells (human, UniProt P31994 43-217)
# T2 construct: extracellular domain; also called mammalian FcγRIIB; soluble monomeric human CD32B
# T2 sequence (looked up): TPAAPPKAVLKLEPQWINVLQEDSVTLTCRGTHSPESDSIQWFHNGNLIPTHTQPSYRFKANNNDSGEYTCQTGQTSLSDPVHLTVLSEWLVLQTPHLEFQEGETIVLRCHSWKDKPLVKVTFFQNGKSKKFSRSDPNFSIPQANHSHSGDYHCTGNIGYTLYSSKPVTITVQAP
# T3: CD32A (H131 form) on THP-1 monocytic cells (human, UniProt P12318 34-317)
# T3 construct: whole, on cells
# T3 sequence (looked up): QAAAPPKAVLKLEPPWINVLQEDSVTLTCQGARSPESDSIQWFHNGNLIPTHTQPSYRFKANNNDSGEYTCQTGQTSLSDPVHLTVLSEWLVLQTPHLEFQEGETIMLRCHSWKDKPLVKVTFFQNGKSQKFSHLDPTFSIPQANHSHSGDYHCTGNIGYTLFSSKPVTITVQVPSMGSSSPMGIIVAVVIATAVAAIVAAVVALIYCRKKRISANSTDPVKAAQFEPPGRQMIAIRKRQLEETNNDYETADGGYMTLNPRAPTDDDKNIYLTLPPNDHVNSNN
# Assays:
# [1] = target: human FcγRIIB (CD32B) on cells (human) (UniProt P31994); experiment: double-staining FACS on CHO cells with full-length FcγRIIB, isotype control pre-incubation
# [2] = target: T1, soluble extracellular domain of human …; experiment: SPR (BIAcore), antibody captured, soluble monomeric receptor injected
# Experimental: The capturing antibody, a F(ab′)2 fragment of a goat anti-mouse Fc-specific antibody (Jackson Immunoresearch, West Grove, Pa.), was immobilized on the CM-5 sensor chip according to the procedure recommended by the manufacturer. Briefly, the carboxyl groups on the sensor chip surface were activated with an injection of a solution containing 0.2M N-ethyl-N-(3diethylamino-propyl) carbodiimide and 0.05M N-hydroxy-succinimide. The F(ab′)2 fragment was then injected over the activated CM-5 surface in 10 mM sodium-acetate, pH 5.0, at flow rate 5 μl/min for 420 sec, followed by 1 M ethanolamine for deactivation. Binding experiments were performed in HBS-P buffer containing 110 mM HEPES, pH 7.4, 150 mM NaCl, and 0.005% P20 surfactant. Each monoclonal antibody was captured on the CM-5 chip by injecting a 300 nM-antibody solution at flow rate 5 μl/min for 240 sec, followed by an injection of the monomeric soluble receptors at concentration of 100 nM and a flow rate 50 μl/min for 120 sec with dissociation time 180 sec. Regeneration of the F(ab′)2 GAM surface was performed by pulse injection of 50 mM glycine, pH 1.5 and 50 mM NaOH. […] Resulted curves were analyzed by separate ka/kd fit. KD values were calculated as average of four curves at two different concentrations. […]
# [3] = target: T2, soluble extracellular domain of human …; experiment: direct ELISA, receptor-coated plate
# [4] = target: T3, CD32A (H131 form) on THP-1 monocytic …; experiment: FACS on THP-1 cells
# Experimental: Recognition of CD32B on the cell surface. Experiments were carried out to test the ability of the antibodies to discriminate CD32B from CD32A expressed on cells and to recognize the native CD32B molecule on human cell lines.
# [5] = target: T4, FcγRIIIA coated on ELISA plates (UniProt P08637 17-208, limits assumed); experiment: direct ELISA, receptor-coated plate
# T4 construct: 100 ng/well on the plate
# T4 sequence (P08637 17-208 limits assumed): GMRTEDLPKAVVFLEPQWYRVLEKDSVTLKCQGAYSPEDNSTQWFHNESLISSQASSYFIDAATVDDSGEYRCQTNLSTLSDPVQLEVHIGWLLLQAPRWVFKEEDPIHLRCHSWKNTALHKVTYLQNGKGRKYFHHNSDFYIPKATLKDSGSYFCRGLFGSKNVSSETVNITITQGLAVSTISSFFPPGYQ
molecule,measurement,setting,value
aggregated human IgG (ligand),percent of cells stained,[1],60%
"mouse monoclonal antibody produced by clone 2B6 (antibody, V domains shown, also called 2B6 antibody; m2B6) VH: QVQLQQPVTELVRPGASVMLSCKASDYPFTNYWIHWVKQRPGQGLEWIGVIDPSDTYPNYNKKFKGKATLTVVVSSSTAYMQLSSLTSDDSAVYYCARNGDSDYYSGMDYWGQGTSVTVSS VL: DILLTQSPAILSVSPGERVSFSCRTSQSIGTNIHWYQQRTNGFPRLLIKNVSESISGIPSRFSGSGSGTDFILSINSVESEDIADYYCQQSNTWPFTFGGGTKLEIK",binding result,[2],no binding (tested: 100 nM soluble receptor)
same,"fold binding relative to AT10, FL18.26 and IV.3",[3],≤ 4.5 fold
same,binding result,[4],no binding
"mouse monoclonal antibody produced by clone 3H7 (antibody, V domains shown, also called 3H7 antibody; 3H7 supernatant) VH: EVKFEESGGGLVQPGGSMKLSCAASGFTFSDAWMDWVRQGPEKGLEWVAEIRNKANNLATYYAESVKGRFTIPRDDSKSSVYLHMNSLRAEDTGIYYCYSPFAYWGQGTLVTVSA VL: DIQMTQSPSSLSASLGERVSLTCRASQEISGYLSWLQQKPDGTIRRLIYAASTLDSGVPKRFSGSWSGSDYSLTISSLESEDFADYYCLQYVSYPYTFGGGTKLEIK",binding result,[5],no binding
